Consider 2 molecules from US20250361314A1 (SHANGHAI HUAOTA BIOPHARMACEUTICAL, published 2025).

The target of one experiment is T1, Human CD39 antigen (human, UniProt P49961 38-478).
T1 construct: Antigen used as analyte in SPR; also called ENTPD1
T1 sequence (looked up): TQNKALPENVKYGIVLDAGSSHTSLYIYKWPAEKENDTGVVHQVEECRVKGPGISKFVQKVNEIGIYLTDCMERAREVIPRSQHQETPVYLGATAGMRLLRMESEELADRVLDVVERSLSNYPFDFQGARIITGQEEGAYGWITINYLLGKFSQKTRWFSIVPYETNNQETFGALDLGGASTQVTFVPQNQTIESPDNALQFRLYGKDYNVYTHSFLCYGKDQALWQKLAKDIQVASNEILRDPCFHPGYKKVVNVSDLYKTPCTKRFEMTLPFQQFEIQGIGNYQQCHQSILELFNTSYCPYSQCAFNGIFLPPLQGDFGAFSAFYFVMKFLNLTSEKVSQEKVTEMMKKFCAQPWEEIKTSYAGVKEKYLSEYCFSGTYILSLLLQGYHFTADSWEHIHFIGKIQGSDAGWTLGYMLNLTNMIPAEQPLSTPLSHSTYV
Briefly: SPR (Biacore 8K), antibody captured on anti-human capture CM5 chip, antigen as analyte, 1:1 model. The procedure:
(§1) An Anti-Human Capture-CM5 chip (GE, #BR-1005-30) was prepared using coupling methods of a Human Antibody Capture Kit (GE, #BR-1008-39) and an amino coupling kit (GE, BR-1000-50). The chip was equilibrated at room temperature for 20-30 mins and loaded into a Biacore 8K instrument. The antigen and antibody were diluted to an experimental working concentration using an equilibration buffer. The antigens were diluted with the equilibrium buffer to 50 nM, and then diluted three-fold for seven concentration gradients, and two zero concentrations (i.e., the equilibrium buffer) and one repeat concentration (typically the lowest concentration repeat) were set. Experimental analysis was performed on 10 antigen concentrations (2 zero concentrations, 7 gradient concentrations, and 1 repeated concentration) in a cyclic manner according to an order of antibody, antigen, and regeneration. The antigen injection flow rate was 30 μL/min, the binding time was 120 s, and the dissociation time was 600 s. Following the analysis, the data was analyzed using the corresponding analysis program to confirm that there was no obvious reference binding. Using Kinetics and a 1:1 binding model, the data was fit to obtain the kinetic related parameters Ka, Kd, and KD values of the bispecific antibodies and parental control antibodies.
In general terms: Surface plasmon resonance follows binding to a sensor surface in real time, without labels.

Experiment [1] concerns the target T2, Human CD73 antigen (human, UniProt P21589 27-547, limits assumed).
T2 construct: Antigen used as analyte in SPR; also called NT5E
T2 sequence (looked up): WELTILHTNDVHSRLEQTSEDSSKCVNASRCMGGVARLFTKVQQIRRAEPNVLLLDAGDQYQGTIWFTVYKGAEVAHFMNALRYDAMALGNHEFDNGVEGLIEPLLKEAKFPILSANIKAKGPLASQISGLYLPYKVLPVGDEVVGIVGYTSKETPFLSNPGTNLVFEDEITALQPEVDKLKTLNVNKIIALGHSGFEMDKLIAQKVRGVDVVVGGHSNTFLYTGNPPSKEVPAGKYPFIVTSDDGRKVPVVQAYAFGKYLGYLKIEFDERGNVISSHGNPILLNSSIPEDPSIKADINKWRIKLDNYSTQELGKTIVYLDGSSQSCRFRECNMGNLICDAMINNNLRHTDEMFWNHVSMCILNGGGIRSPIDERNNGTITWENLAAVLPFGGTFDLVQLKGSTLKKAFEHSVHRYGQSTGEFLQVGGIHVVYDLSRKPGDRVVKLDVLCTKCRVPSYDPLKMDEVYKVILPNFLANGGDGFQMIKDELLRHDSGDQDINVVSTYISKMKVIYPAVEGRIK
The description is as above. Here is the method:
as §1

Another experiment deals with T3, Cynomolgus CD39 antigen (cynomolgus, UniProt A0A7N9DGH8 38-478).
T3 construct: Antigen used as analyte in SPR
T3 sequence: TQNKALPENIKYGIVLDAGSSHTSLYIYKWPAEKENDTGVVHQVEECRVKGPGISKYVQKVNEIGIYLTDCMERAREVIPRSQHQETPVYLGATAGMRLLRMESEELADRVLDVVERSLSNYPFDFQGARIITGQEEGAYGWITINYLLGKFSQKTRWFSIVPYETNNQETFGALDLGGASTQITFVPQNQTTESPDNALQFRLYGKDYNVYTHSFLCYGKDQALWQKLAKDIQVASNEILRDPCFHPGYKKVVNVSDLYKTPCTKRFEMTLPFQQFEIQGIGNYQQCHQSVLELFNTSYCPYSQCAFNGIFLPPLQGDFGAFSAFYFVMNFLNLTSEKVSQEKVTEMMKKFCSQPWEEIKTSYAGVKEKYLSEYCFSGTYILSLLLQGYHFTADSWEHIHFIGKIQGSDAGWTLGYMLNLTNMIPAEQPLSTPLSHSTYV
As to the kind of experiment: SPR (Biacore 8K), species cross test, antibody captured on anti-human capture CM5 chip, antigen as analyte, 1:1 model. The procedure:
(§2) The experimental method is as follows:
(§3) An Anti-Human Capture-CM5 chip (GE, #BR-1005-30) was prepared using coupling methods of a Human Antibody Capture Kit (GE, #BR-1008-39) and an amino coupling kit (GE, BR-1000-50). The chip was equilibrated at room temperature for about 20-30 min and loaded into a Biacore 8K instrument. The antigen and antibody were diluted to an experimental working concentration using an equilibration buffer. The antigen was diluted with an equilibrium buffer to 50 nM, and then diluted three-fold for seven concentration gradients, and two zero concentrations (i.e., the equilibrium buffer) and one repeat concentration (typically the lowest concentration repeat) were set. Experimental analysis was performed on 10 antigen concentrations (2 zero concentrations, 7 gradient concentrations, and 1 repeated concentration) in a cyclic manner according to an order of antibody, antigen, and regeneration. The antigen injection flow rate was 30 μL/min, the binding time was 120 s, and the dissociation time was 600 s. Following the analysis, the data was analyzed using the corresponding analysis program to confirm that there was no obvious reference binding. Using Kinetics and a 1:1 binding model, the data was fit to obtain the kinetic related parameters Ka, Kd, and KD values of the bispecific antibodies.

Experiment [2] has as its target T2, Human CD73 antigen. Described as above. Here is the method:
as §2, §3

B1: CD39/CD73 bispecific antibody 700038 (CD39-VHH-CD73-IgG) (bispecific antibody)
heavy: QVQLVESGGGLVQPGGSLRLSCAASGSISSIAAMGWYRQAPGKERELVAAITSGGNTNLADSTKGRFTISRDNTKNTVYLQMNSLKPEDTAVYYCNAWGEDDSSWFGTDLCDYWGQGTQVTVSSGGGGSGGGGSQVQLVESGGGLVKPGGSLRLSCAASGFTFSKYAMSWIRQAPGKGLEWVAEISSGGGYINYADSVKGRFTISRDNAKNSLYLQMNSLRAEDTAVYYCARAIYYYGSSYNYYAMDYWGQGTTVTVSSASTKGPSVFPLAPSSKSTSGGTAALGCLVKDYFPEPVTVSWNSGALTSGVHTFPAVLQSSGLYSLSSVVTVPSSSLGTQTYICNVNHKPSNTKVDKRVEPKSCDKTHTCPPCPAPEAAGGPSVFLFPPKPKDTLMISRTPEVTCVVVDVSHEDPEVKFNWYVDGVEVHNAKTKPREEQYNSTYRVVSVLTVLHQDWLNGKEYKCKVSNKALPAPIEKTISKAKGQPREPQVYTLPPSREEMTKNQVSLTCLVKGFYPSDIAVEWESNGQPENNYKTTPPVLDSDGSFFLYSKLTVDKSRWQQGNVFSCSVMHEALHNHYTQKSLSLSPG
light: DIQMTQSPSSLSASVGDRVTITCRASQDVGTAEAWYQQKPGKAPKLLIYWASTRHTGVPSRFSGSGSGTDFTLTISSLQPEDFATYYCQQYSSYPLTFGQGTKLEIKRTVAAPSVFIFPPSDEQLKSGTASVVCLLNNFYPREAKVQWKVDNALQSGNSQESVTEQDSKDSTYSLSSTLTLSKADYEKHKVYACEVTHQGLSSPVTKSFNRGEC
With B1, the dissociation constant Kd (in general, a measure of binding affinity in units of concentration) stood at 0.0918 nM with Human CD39 antigen, 0.425 nM with Human CD73 antigen [1], 2.69 nM in the experiment with Cynomolgus CD39 antigen and 0.425 nM in the experiment with Human CD73 antigen [2]. The koff (as a rule, the first-order rate constant of dissociation) with Human CD39 antigen was 9.54e-05 s⁻¹; with Human CD73 antigen [1] it was 0.000249 s⁻¹; with Cynomolgus CD39 antigen, 0.00163 s⁻¹; with Human CD73 antigen [2] it was 0.000249 s⁻¹. The kon – broadly, the rate constant with which the complex forms – in the experiment with Human CD39 antigen stood at 1.04e+06 M⁻¹ s⁻¹; in the experiment with Human CD73 antigen [1], 587000 M⁻¹ s⁻¹; in the experiment with Cynomolgus CD39 antigen it was 606000 M⁻¹ s⁻¹; with Human CD73 antigen [2] it was 587000 M⁻¹ s⁻¹.

B2: CD39/CD73 bispecific antibody 700035 (CD39-VHH-CD73-IgG) (bispecific antibody)
heavy: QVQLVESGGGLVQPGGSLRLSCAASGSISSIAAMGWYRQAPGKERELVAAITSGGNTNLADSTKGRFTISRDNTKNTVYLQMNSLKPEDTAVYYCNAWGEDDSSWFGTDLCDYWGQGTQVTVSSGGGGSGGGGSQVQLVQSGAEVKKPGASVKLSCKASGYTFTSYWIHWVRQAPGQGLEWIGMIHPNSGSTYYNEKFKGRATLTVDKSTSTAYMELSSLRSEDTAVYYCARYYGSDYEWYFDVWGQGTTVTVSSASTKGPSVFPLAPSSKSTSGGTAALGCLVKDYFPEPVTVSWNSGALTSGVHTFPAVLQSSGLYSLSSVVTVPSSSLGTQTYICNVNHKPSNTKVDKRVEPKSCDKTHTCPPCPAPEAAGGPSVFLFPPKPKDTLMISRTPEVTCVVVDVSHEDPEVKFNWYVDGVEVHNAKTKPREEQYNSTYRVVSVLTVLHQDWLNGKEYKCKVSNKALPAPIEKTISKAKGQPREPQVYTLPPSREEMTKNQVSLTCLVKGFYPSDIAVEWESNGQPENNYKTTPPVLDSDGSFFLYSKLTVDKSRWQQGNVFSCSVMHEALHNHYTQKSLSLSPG
light: DIQMTQSPSSMSASVGDRVTITCKASQNVRTAVVWYQQKPGKAPKALIYLASNRHTGVPDRFSGSGSGTDFTLTISSLQPEDFATYFCLQHWNYPYTFGQGTKLEIKRTVAAPSVFIFPPSDEQLKSGTASVVCLLNNFYPREAKVQWKVDNALQSGNSQESVTEQDSKDSTYSLSSTLTLSKADYEKHKVYACEVTHQGLSSPVTKSFNRGEC
Turning to B2, the Kd is 0.0708 nM with Human CD39 antigen, 0.341 nM with Human CD73 antigen [1], 2.61 nM with Cynomolgus CD39 antigen and 0.341 nM with Human CD73 antigen [2]. Also, the koff with Human CD39 antigen came out at 9.28e-05 s⁻¹; with Human CD73 antigen [1] it was 0.000319 s⁻¹; in the experiment with Cynomolgus CD39 antigen, 0.00161 s⁻¹; in the experiment with Human CD73 antigen [2] it was 0.000319 s⁻¹. The kon with Human CD39 antigen is 1.31e+06 M⁻¹ s⁻¹; with Human CD73 antigen [1], 935000 M⁻¹ s⁻¹; with Cynomolgus CD39 antigen it was 618000 M⁻¹ s⁻¹; with Human CD73 antigen [2] it was 935000 M⁻¹ s⁻¹.
